The values that follow come from PMC7367873, “Dissecting the sequence determinants for dephosphorylation by the catalytic subunits of phosphatases PP1 and PP2A” (Nature Communications, 2020).

The test system of experiment [1] is GFP-14-3-3β and its binding proteins. Briefly: GFP-14-3-3β co-IP with LC-MS/MS label-free quantification, untreated versus PP1c-treated. Also noted: species or system human.
The test system of experiment [2] is GFP-14-3-3β. Briefly: GFP-14-3-3β co-IP with LC-MS/MS, untreated GFP-14-3-3β versus GFP control (14-3-3 interactome). The format is binding, human.
Where [3] appears, read: PP1 vs untreated, LFQ intensities, replicates 1-3.
[4] abbreviates: untreated vs GFP, LFQ intensities, replicates 1-3.

B1: HNRNPA3 (protein, UniProt P51991 1-378, looked up)
Heterogeneous nuclear …: MEVKPPPGRPQPDSGRRRRRRGEEGHDPKEPEQLRKLFIGGLSFETTDDSLREHFEKWGTLTDCVVMRDPQTKRSRGFGFVTYSCVEEVDAAMCARPHKVDGRVVEPKRAVSREDSVKPGAHLTVKKIFVGGIKEDTEEYNLRDYFEKYGKIETIEVMEDRQSGKKRGFAFVTFDDHDTVDKIVVQKYHTINGHNCEVKKALSKQEMQSAGSQRGRGGGSGNFMGRGGNFGGGGGNFGRGGNFGGRGGYGGGGGGSRGSYGGGDGGYNGFGGDGGNYGGGPGYSSRGGYGGGGPGYGNQGGGYGGGGGYDGYNEGGNFGGGNYGGGGNYNDFGNYSGQQQSNYGPMKGGSFGGRSSGSPYGGGYGSGGGSGGYGSRRF
As for B1, the “Difference (log2), PP1 vs untreated” value in experiment [1] (setting [3]) was -0.8983 log2. Further, the “Difference (log2), untreated vs GFP” value in experiment [2] (setting [4]) was 1.1202 log2.

B2: GIGYF2 (protein, UniProt Q6Y7W6 2-1299, looked up)
GRB10-interacting GYF protein …: AAETQTLNFGPEWLRALSSGGSITSPPLSPALPKYKLADYRYGREEMLALFLKDNKIPSDLLDKEFLPILQEEPLPPLALVPFTEEEQRNFSMSVNSAAVLRLTGRGGGGTVVGAPRGRSSSRGRGRGRGECGFYQRSFDEVEGVFGRGGGREMHRSQSWEERGDRRFEKPGRKDVGRPNFEEGGPTSVGRKHEFIRSESENWRIFREEQNGEDEDGGWRLAGSRRDGERWRPHSPDGPRSAGWREHMERRRRFEFDFRDRDDERGYRRVRSGSGSIDDDRDSLPEWCLEDAEEEMGTFDSSGAFLSLKKVQKEPIPEEQEMDFRPVDEGEECSDSEGSHNEEAKEPDKTNKKEGEKTDRVGVEASEETPQTSSSSARPGTPSDHQSQEASQFERKDEPKTEQTEKAEEETRMENSLPAKVPSRGDEMVADVQQPLSQIPSDTASPLLILPPPVPNPSPTLRPVETPVVGAPGMGSVSTEPDDEEGLKHLEQQAEKMVAYLQDSALDDERLASKLQEHRAKGVSIPLMHEAMQKWYYKDPQGEIQGPFNNQEMAEWFQAGYFTMSLLVKRACDESFQPLGDIMKMWGRVPFSPGPAPPPHMGELDQERLTRQQELTALYQMQHLQYQQFLIQQQYAQVLAQQQKAALSSQQQQQLALLLQQFQTLKMRISDQNIIPSVTRSVSVPDTGSIWELQPTASQPTVWEGGSVWDLPLDTTTPGPALEQLQQLEKAKAAKLEQERREAEMRAKREEEERKRQEELRRQQEEILRRQQEEERKRREEEELARRKQEEALRRQREQEIALRRQREEEERQQQEEALRRLEERRREEEERRKQEELLRKQEEEAAKWAREEEEAQRRLEENRLRMEEEAARLRHEEEERKRKELEVQRQKELMRQRQQQQEALRRLQQQQQQQQLAQMKLPSSSTWGQQSNTTACQSQATLSLAEIQKLEEERERQLREEQRRQQRELMKALQQQQQQQQQKLSGWGNVSKPSGTTKSLLEIQQEEARQMQKQQQQQQQHQQPNRARNNTHSNLHTSIGNSVWGSINTGPPNQWASDLVSSIWSNADTKNSNMGFWDDAVKEVGPRNSTNKNKNNASLSKSVGVSNRQNKKVEEEEKLLKLFQGVNKAQDGFTQWCEQMLHALNTANNLDVPTFVSFLKEVESPYEVHDYIRAYLGDTSEAKEFAKQFLERRAKQKANQQRQQQQLPQQQQQQPPQQPPQQPQQQDSVWGMNHSTLHSVFQTNQSNNQQSNFEAVQSGKKKKKQKMVRADPSLLGFSVNASSERLNMGEIETLDDY
In the case of B2, in experiment [1] (setting [3]), the “Difference (log2), PP1 vs untreated” value is on record as -0.9344 log2. Besides, the “Difference (log2), untreated vs GFP” value in experiment [2] (setting [4]) amounted to 2.445 log2.

B3: FLII (protein, UniProt Q13045 1-1269, looked up)
Protein flightless-1 homolog: MEATGVLPFVRGVDLSGNDFKGGYFPENVKAMTSLRWLKLNRTGLCYLPEELAALQKLEHLSVSHNNLTTLHGELSSLPSLRAIVARANSLKNSGVPDDIFKLDDLSVLDLSHNQLTECPRELENAKNMLVLNLSHNSIDTIPNQLFINLTDLLYLDLSENRLESLPPQMRRLVHLQTLVLNGNPLLHAQLRQLPAMTALQTLHLRSTQRTQSNLPTSLEGLSNLADVDLSCNDLTRVPECLYTLPSLRRLNLSSNQITELSLCIDQWVHVETLNLSRNQLTSLPSAICKLSKLKKLYLNSNKLDFDGLPSGIGKLTNLEEFMAANNNLELVPESLCRCPKLRKLVLNKNHLVTLPEAIHFLTEIEVLDVRENPNLVMPPKPADRAAEWYNIDFSLQNQLRLAGASPATVAAAAAAGSGPKDPMARKMRLRRRKDSAQDDQAKQVLKGMSDVAQEKNKKQEESADARAPSGKVRRWDQGLEKPRLDYSEFFTEDVGQLPGLTIWQIENFVPVLVEEAFHGKFYEADCYIVLKTFLDDSGSLNWEIYYWIGGEATLDKKACSAIHAVNLRNYLGAECRTVREEMGDESEEFLQVFDNDISYIEGGTASGFYTVEDTHYVTRMYRVYGKKNIKLEPVPLKGTSLDPRFVFLLDRGLDIYVWRGAQATLSSTTKARLFAEKINKNERKGKAEITLLVQGQELPEFWEALGGEPSEIKKHVPEDFWPPQPKLYKVGLGLGYLELPQINYKLSVEHKQRPKVELMPRMRLLQSLLDTRCVYILDCWSDVFIWLGRKSPRLVRAAALKLGQELCGMLHRPRHATVSRSLEGTEAQVFKAKFKNWDDVLTVDYTRNAEAVLQSPGLSGKVKRDAEKKDQMKADLTALFLPRQPPMSLAEAEQLMEEWNEDLDGMEGFVLEGKKFARLPEEEFGHFYTQDCYVFLCRYWVPVEYEEEEKKEDKEEKAEGKEGEEATAEAEEKQPEEDFQCIVYFWQGREASNMGWLTFTFSLQKKFESLFPGKLEVVRMTQQQENPKFLSHFKRKFIIHRGKRKAVQGAQQPSLYQIRTNGSALCTRCIQINTDSSLLNSEFCFILKVPFESEDNQGIVYAWVGRASDPDEAKLAEDILNTMFDTSYSKQVINEGEEPENFFWVGIGAQKPYDDDAEYMKHTRLFRCSNEKGYFAVTEKCSDFCQDDLADDDIMLLDNGQEVYMWVGTQTSQVEIKLSLKACQVYIQHMRSKEHERPRRLRLVRKGNEQHAFTRCFHAWSAFCKALA
For the molecule B3, the “Difference (log2), PP1 vs untreated” value in experiment [1] (setting [3]) is recorded as -0.8907 log2. For the same molecule, the “Difference (log2), untreated vs GFP” value in experiment [2] (setting [4]) was 1.165 log2.

B4: DBN1 (protein, UniProt Q16643 2-649, looked up)
Drebrin: AGVSFSGHRLELLAAYEEVIREESAADWALYTYEDGSDDLKLAASGEGGLQELSGHFENQKVMYGFCSVKDSQAALPKYVLINWVGEDVPDARKCACASHVAKVAEFFQGVDVIVNASSVEDIDAGAIGQRLSNGLARLSSPVLHRLRLREDENAEPVGTTYQKTDAAVEMKRINREQFWEQAKKEEELRKEEERKKALDERLRFEQERMEQERQEQEERERRYREREQQIEEHRRKQQTLEAEEAKRRLKEQSIFGDHRDEEEETHMKKSESEVEEAAAIIAQRPDNPREFFKQQERVASASAGSCDVPSPFNHRPGSHLDSHRRMAPTPIPTRSPSDSSTASTPVAEQIERALDEVTSSQPPPLPPPPPPAQETQEPSPILDSEETRAAAPQAWAGPMEEPPQAQAPPRGPGSPAEDLMFMESAEQAVLAAPVEPATADATEIHDAADTIETDTATADTTVANNVPPAATSLIDLWPGNGEGASTLQGEPRAPTPPSGTEVTLAEVPLLDEVAPEPLLPAGEGCATLLNFDELPEPPATFCDPEEVEGESLAAPQTPTLPSALEELEQEQEPEPHLLTNGETTQKEGTQASEGYFSQSQEEEFAQSEELCAKAPPPVFYNKPPEIDITCWDADPVPEEEEGFEGGD
As to B4, in experiment [1] (setting [3]), the “Difference (log2), PP1 vs untreated” value is recorded as -0.9011 log2. In addition, in experiment [2] (setting [4]), the “Difference (log2), untreated vs GFP” value is -0.06481 log2.

B5: HSD17B4 (protein, UniProt P51659 1-736, looked up)
Peroxisomal multifunctional …: MGSPLRFDGRVVLVTGAGAGLGRAYALAFAERGALVVVNDLGGDFKGVGKGSLAADKVVEEIRRRGGKAVANYDSVEEGEKVVKTALDAFGRIDVVVNNAGILRDRSFARISDEDWDIIHRVHLRGSFQVTRAAWEHMKKQKYGRIIMTSSASGIYGNFGQANYSAAKLGLLGLANSLAIEGRKSNIHCNTIAPNAGSRMTQTVMPEDLVEALKPEYVAPLVLWLCHESCEENGGLFEVGAGWIGKLRWERTLGAIVRQKNHPMTPEAVKANWKKICDFENASKPQSIQESTGSIIEVLSKIDSEGGVSANHTSRATSTATSGFAGAIGQKLPPFSYAYTELEAIMYALGVGASIKDPKDLKFIYEGSSDFSCLPTFGVIIGQKSMMGGGLAEIPGLSINFAKVLHGEQYLELYKPLPRAGKLKCEAVVADVLDKGSGVVIIMDVYSYSEKELICHNQFSLFLVGSGGFGGKRTSDKVKVAVAIPNRPPDAVLTDTTSLNQAALYRLSGDWNPLHIDPNFASLAGFDKPILHGLCTFGFSARRVLQQFADNDVSRFKAIKARFAKPVYPGQTLQTEMWKEGNRIHFQTKVQETGDIVISNAYVDLAPTSGTSAKTPSEGGKLQSTFVFEEIGRRLKDIGPEVVKKVNAVFEWHITKGGNIGAKWTIDLKSGSGKVYQGPAKGAADTTIILSDEDFMEVVLGKLDPQKAFFSGRLKARGNIMLSQKLQMILKDYAKL
On to B5, for which, in experiment [1] (setting [3]), the “Difference (log2), PP1 vs untreated” value is -0.9107 log2. The “Difference (log2), untreated vs GFP” value in experiment [2] (setting [4]) is listed as -0.9814 log2.

B6: TMEM33 (protein, UniProt P57088 2-247, looked up)
Transmembrane protein 33: ADTTPNGPQGAGAVQFMMTNKLDTAMWLSRLFTVYCSALFVLPLLGLHEAASFYQRALLANALTSALRLHQRLPHFQLSRAFLAQALLEDSCHYLLYSLIFVNSYPVTMSIFPVLLFSLLHAATYTKKVLDARGSNSLPLLRSVLDKLSANQQNILKFIACNEIFLMPATVFMLFSGQGSLLQPFIYYRFLTLRYSSRRNPYCRTLFNELRIVVEHIIMKPACPLFVRRLCLQSIAFISRLAPTVP
In the case of B6, in experiment [1] (log2 difference, pairwise comparison PP1 vs untreated, label-free quantification, 3 replicates each), the “Difference (log2), PP1 vs untreated” value amounted to 1.645. The “Difference (log2), untreated vs GFP” value in experiment [2] (log2 difference, pairwise comparison untreated vs GFP, label-free quantification, 3 replicates each) is reported as 0.3842.
